Measurements taken from the supplement of paper PMC10567573.

B1: C19orf51 (parent)
chain: FAPQTGARPSETFARFCKSQESAL
B2: ZNF207 (parent)
chain: FPSAGQAQAAVQGPVGTDFKPLNS

Variants of: B1
Assay: protein stability index of a GFP-peptide fusion (GPS, HEK-293T) (PSI 1-6); higher = more stable
Details: c terminus: a fixed tail appended
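Further: lentivirally expressed fusions sorted by FACS into six bins by GFP to DsRed ratio, PSI derived from sequencing read proportions per bin multiplied by bin number.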

Variant	protein stability index
FTPQTGARPSETFARFCKSQESAL [A2T]	1.61
FDPQTGARPSETFARFCKSQESAL [A2D]	3.07
FKPQTGARPSETFARFCKSQESAL [A2K]	3.17
FPPQTGARPSETFARFCKSQESAL [A2P]	2.16
FGPQTGARPSETFARFCKSQESAL [A2G]	2.95
FSPQTGARPSETFARFCKSQESAL [A2S]	1.9
FHPQTGARPSETFARFCKSQESAL [A2H]	1
FYPQTGARPSETFARFCKSQESAL [A2Y]	2.59
FMPQTGARPSETFARFCKSQESAL [A2M]	1.45
FNPQTGARPSETFARFCKSQESAL [A2N]	1.04
FWPQTGARPSETFARFCKSQESAL [A2W]	2.02
FFPQTGARPSETFARFCKSQESAL [A2F]	1.88
DAPQTGARPSETFARFCKSQESAL [F1D]	4.78
IAPQTGARPSETFARFCKSQESAL [F1I]	2.65
KAPQTGARPSETFARFCKSQESAL [F1K]	3.54
VAPQTGARPSETFARFCKSQESAL [F1V]	3.3
QAPQTGARPSETFARFCKSQESAL [F1Q]	3.77
GAPQTGARPSETFARFCKSQESAL [F1G]	4.63
TAPQTGARPSETFARFCKSQESAL [F1T]	2.49
PAPQTGARPSETFARFCKSQESAL [F1P]	3.71
SAPQTGARPSETFARFCKSQESAL [F1S]	3.79
NAPQTGARPSETFARFCKSQESAL [F1N]	3.87

Variant	protein stability index
WAPQTGARPSETFARFCKSQESAL [F1W]	2.58
EAPQTGARPSETFARFCKSQESAL [F1E]	4.14
YAPQTGARPSETFARFCKSQESAL [F1Y]	4.05
CAPQTGARPSETFARFCKSQESAL [F1C]	1.38
MAPQTGARPSETFARFCKSQESAL [F1M]	3.59
FAPLTGARPSETFARFCKSQESAL [Q4L]	4.02
FAPTTGARPSETFARFCKSQESAL [Q4T]	2.06
FAPPTGARPSETFARFCKSQESAL [Q4P]	1.28
FAPSTGARPSETFARFCKSQESAL [Q4S]	2.6
FAPITGARPSETFARFCKSQESAL [Q4I]	2.27
FAPCTGARPSETFARFCKSQESAL [Q4C]	2.85
FAPDTGARPSETFARFCKSQESAL [Q4D]	2
FAPYTGARPSETFARFCKSQESAL [Q4Y]	2.21
FAPMTGARPSETFARFCKSQESAL [Q4M]	1.65
FAPETGARPSETFARFCKSQESAL [Q4E]	1.84
FAPKTGARPSETFARFCKSQESAL [Q4K]	1.99
FAPHTGARPSETFARFCKSQESAL [Q4H]	2.21
FAPRTGARPSETFARFCKSQESAL [Q4R]	1.94
FAPNTGARPSETFARFCKSQESAL [Q4N]	1.69
FAPFTGARPSETFARFCKSQESAL [Q4F]	1.98
FAQQTGARPSETFARFCKSQESAL [P3Q]	2.72
FACQTGARPSETFARFCKSQESAL [P3C]	1.62

Variant	protein stability index
FASQTGARPSETFARFCKSQESAL [P3S]	1.61
FAWQTGARPSETFARFCKSQESAL [P3W]	2.66
FAIQTGARPSETFARFCKSQESAL [P3I]	1.72
FAVQTGARPSETFARFCKSQESAL [P3V]	1.95
FADQTGARPSETFARFCKSQESAL [P3D]	2.79
FAEQTGARPSETFARFCKSQESAL [P3E]	2.64
FAKQTGARPSETFARFCKSQESAL [P3K]	2.51
FALQTGARPSETFARFCKSQESAL [P3L]	1.5
FAAQTGARPSETFARFCKSQESAL [P3A]	1.05
FATQTGARPSETFARFCKSQESAL [P3T]	1.98
FANQTGARPSETFARFCKSQESAL [P3N]	1.96
FAFQTGARPSETFARFCKSQESAL [P3F]	1.7
FAPQTSARPSETFARFCKSQESAL [G6S]	1.9
FAPQTMARPSETFARFCKSQESAL [G6M]	2.32
FAPQTAARPSETFARFCKSQESAL [G6A]	2.12
FAPQTEARPSETFARFCKSQESAL [G6E]	1.67
FAPQTVARPSETFARFCKSQESAL [G6V]	2.13
FAPQTCARPSETFARFCKSQESAL [G6C]	1.06
FAPQTPARPSETFARFCKSQESAL [G6P]	1.95
FAPQTQARPSETFARFCKSQESAL [G6Q]	1.36
FAPQTDARPSETFARFCKSQESAL [G6D]	2.04
FAPQTIARPSETFARFCKSQESAL [G6I]	2.25

Variant	protein stability index
FAPQTTARPSETFARFCKSQESAL [G6T]	2.51
FAPQTLARPSETFARFCKSQESAL [G6L]	2.07
FAPQTKARPSETFARFCKSQESAL [G6K]	2.51
FAPQTYARPSETFARFCKSQESAL [G6Y]	1.86
FAPQTFARPSETFARFCKSQESAL [G6F]	2.86
FAPQTWARPSETFARFCKSQESAL [G6W]	2.83
FAPQTGFRPSETFARFCKSQESAL [A7F]	2.41
FAPQTGERPSETFARFCKSQESAL [A7E]	1.77
FAPQTGDRPSETFARFCKSQESAL [A7D]	1.59
FAPQTGHRPSETFARFCKSQESAL [A7H]	3.46
FAPQTGCRPSETFARFCKSQESAL [A7C]	2.92
FAPQGGARPSETFARFCKSQESAL [T5G]	3.11
FAPQAGARPSETFARFCKSQESAL [T5A]	2.07
FAPQYGARPSETFARFCKSQESAL [T5Y]	2.78
FAPQPGARPSETFARFCKSQESAL [T5P]	1.81
FAPQEGARPSETFARFCKSQESAL [T5E]	2.42
FAPQNGARPSETFARFCKSQESAL [T5N]	2.01
FAPQQGARPSETFARFCKSQESAL [T5Q]	2.47
FAPQDGARPSETFARFCKSQESAL [T5D]	2.37

Variants of: B2
Assay: as above
Details: c terminus: a fixed tail appended

Variant	protein stability index
FPSAGQAQAAVQGPVGTDFKPLNM [S24M]	3.08
FPSAGQAQAAVQGPVGTDFKPLNW [S24W]	1.89
FPSAGQAQAAVQGPVGTDFKPLNP [S24P]	3.54
FPSAGQAQAAVQGPVGTDFKPLNQ [S24Q]	3.43
FPSAGQAQAAVQGPVGTDFKPLNN [S24N]	3.92
FPSAGQAQAAVQGPVGTDFKPLNT [S24T]	3.37
FPSAGQAQAAVQGPVGTDFKPLNR [S24R]	3.15
FPSAGQAQAAVQGPVGTDFKPLNY [S24Y]	2.63
FPSAGQAQAAVQGPVGTDFKPLNV [S24V]	3.19
